Results from patent publication US20170342119A1.

Biological target: IL-15 βγ receptors on 32Dβ cells (UniProt P14784)
Assay: cell-based or functional assay

Chain of UniProt P14784 (P14784 27-551, chain 1 of 2): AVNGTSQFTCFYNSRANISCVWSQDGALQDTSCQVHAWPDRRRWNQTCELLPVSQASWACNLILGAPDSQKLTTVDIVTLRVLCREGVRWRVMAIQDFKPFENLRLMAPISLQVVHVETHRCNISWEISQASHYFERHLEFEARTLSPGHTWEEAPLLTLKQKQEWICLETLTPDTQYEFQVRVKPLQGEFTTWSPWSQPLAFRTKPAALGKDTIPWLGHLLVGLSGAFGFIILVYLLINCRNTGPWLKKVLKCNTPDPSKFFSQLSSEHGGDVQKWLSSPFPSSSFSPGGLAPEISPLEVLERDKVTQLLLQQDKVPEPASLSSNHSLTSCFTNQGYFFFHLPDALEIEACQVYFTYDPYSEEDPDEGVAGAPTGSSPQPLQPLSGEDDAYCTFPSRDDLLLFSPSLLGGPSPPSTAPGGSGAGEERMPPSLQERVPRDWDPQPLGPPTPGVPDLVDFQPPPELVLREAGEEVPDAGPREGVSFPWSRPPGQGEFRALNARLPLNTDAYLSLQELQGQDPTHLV
Chain of UniProt P14784 (P34902 23-369, chain 2 of 2, further chain): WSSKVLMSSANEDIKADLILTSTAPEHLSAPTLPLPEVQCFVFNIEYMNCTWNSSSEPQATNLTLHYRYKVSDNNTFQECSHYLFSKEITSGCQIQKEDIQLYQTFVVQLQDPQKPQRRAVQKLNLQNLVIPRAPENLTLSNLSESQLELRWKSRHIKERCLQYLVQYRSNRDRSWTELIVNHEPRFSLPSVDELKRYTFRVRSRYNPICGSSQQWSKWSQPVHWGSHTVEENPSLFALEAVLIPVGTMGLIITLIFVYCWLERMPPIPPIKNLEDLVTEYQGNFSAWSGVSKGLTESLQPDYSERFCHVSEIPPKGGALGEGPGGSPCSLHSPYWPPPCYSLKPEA

32Dβ cell proliferation (WST-1), EC50: 0.034 nM
Substance: IL-15 (from UniProt P40933 49-162) (ligand)
